{"source": "the nanobody polyreactivity screen of Harvey et al. (2022)", "data": [{"test": "yeast display, Sf9 membrane polyspecificity reagent, FACS + sequencing; frameworks hold sequencing errors", "how_it_was_run": "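In a synthetic yeast display library (Saccharomyces cerevisiae BJ5465), nanobody expression was induced with galactose for 36–48 hours. FACS gates were set low and high (top ~1%) using anti-HA fluorescence for expression and streptavidin fluorescence for binding of the Sf9 membrane reagent. Each polyreactivity label is drawn from the gate of origin.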", "values": [{"sequence": "QVHLVESGGGLVQAGGSLRLSCAASGFIFSLYAMGWYRQAPGKERELVAAISKRGGSTNYADSVKGRFTISRDNAKNTVYLQMNSLKPEDTAVYYWAKARPGFLYDHWGQGTQVTVSS", "polyreactivity (PSR sort gate)": "high polyreactivity"}, {"sequence": "QVQLVESGGGLVQAGGSLRLSCAASGLNFARNAMGWYRQAPGKERELVASITSGGSTNYADSVKGRFTISRDNAKNTVYLQMNSLKPEDTAVYFCNKAYFFPYPRYRYEYWGQGTQVTVSS", "polyreactivity (PSR sort gate)": "high polyreactivity"}, {"sequence": "QVQLVESGGGLLQAGGSLRLSCAASGRIKDNGMGWYIKAPGKERELVAAITLSAGRTYYADSVKGRFTISRDNAKNTVYLQMNSLKPEDTAVYYCAAQAERYGYEYWGQGTQVTVSS", "polyreactivity (PSR sort gate)": "low polyreactivity"}, {"sequence": "QVQLVESGGGLVQAGGSLRLSCAASGSIFNPYAMGWSRQAPGKEWELVAAISYDTTSTYYADSVKGRFTISRDNAKNTDYLQMNSLKPEDTAVYYCAARDQYGPGYRSESLDSWGQGTQETVSS", "polyreactivity (PSR sort gate)": "low polyreactivity"}, {"sequence": "QVQLVESGGGLVQAGGSLRLSCAASGSTFPTYAMGWYRQAPGKERELVAAITWSGGSTYYADSVKGRFTISRDNAKNTVYLLMNSLKPEDTAVYYCAKSTGYGRRQKRYDWGQGSQVTVSS", "polyreactivity (PSR sort gate)": "high polyreactivity"}, {"sequence": "QVQLVESGGGLVQAGCSLRLSCAASGITFTEYAMGWSRQAPGKERELGATISYGGGITYYADSVKGRFTISRDNAKNTVYLQMNSLKPEDTAVYYCAADGLSQVQRGMDYWGQGTQVTVSS", "polyreactivity (PSR sort gate)": "low polyreactivity"}, {"sequence": "QVQLVESGGGLVQAGGSLRLSCAASGRIFARYAMGWNRQAPGKERELVAAISFRGGSTYYADSVKGRFTISRDNAKNTVYLQINSLKPEDTAVYYWNARYGRGGYDYWGQGTQVTVSS", "polyreactivity (PSR sort gate)": "high polyreactivity"}, {"sequence": "QVQLVESGGGLVQAGGSLRLSCAASGLIFSFYALGWYRQAPGKERELVAAINRSGGSTYYADSVKGRFTISRDNSKNTVYLQMNSLKPEDTAVYYCAARNAFGTYYYWGQGTQVTVSS", "polyreactivity (PSR sort gate)": "high polyreactivity"}, {"sequence": "QVQLVESGGGLVQAGGSLRLSCAASGRTFISYAMGWYRQAPGKERELVAGISTSGDNTYNADSVKGRFTISRDNAKNTVYLQMNSLKPEDTAVYYCAAGQDLHDFDYWGQGTQVTVSS", "polyreactivity (PSR sort gate)": "low polyreactivity"}, {"sequence": "QVQLVESGGGLVQAGGSLRLSCAASGFIFSRYTMGWYRQAPGKERELVAAITARGSSTYYADSVKGRFTISRDIAKNTVYLQMISLKPEDTAVYYCNAGQYVFYRPYDYWGQGTQVTVSS", "polyreactivity (PSR sort gate)": "high polyreactivity"}, {"sequence": "QVQLVESGGGLVQAGGSLRLSCAASGFTFFYNAMGWYRPAPGKERELGAVITWNGGTTYYADSVKGRFTISRDNAKNTVYLQMNSLKTEDTAVYYCNADGLILYDYWGQGTQVTVSS", "polyreactivity (PSR sort gate)": "low polyreactivity"}, {"sequence": "QVQLVESGGGLVQAGGSLRLSCAASGSIFLAYAMGWYRQAPGKERELVAAITSGGGRTYYADSVKGRFTISRDNAKNTVYLQMNSLKPEDTAVYYCAASYRAGQMWYDYWGQGTQVTVSS", "polyreactivity (PSR sort gate)": "high polyreactivity"}, {"sequence": "QVQLVESGGGLVHAGGSLRLSCAASGLIFHHNAMGWYRQAPGKERELVAAISRSAGSTYYADSVKGRFTISRDNAKNTVYLQMNSLKPEDTAVYYCAKRPTPTSKYDTVGYGYWGQGTQVTVSS", "polyreactivity (PSR sort gate)": "low polyreactivity"}, {"sequence": "QVQLVESGGGLVQAGGSLRLSCAASGSTFQVYTKGWYIQAPGKEREFVASISWSGSSTYYADSVKGRFTISRDNAKNTVYLQMNSLKPEDTAVYYCAARARIKYLADPGYYWGQGTQVTVSS", "polyreactivity (PSR sort gate)": "high polyreactivity"}, {"sequence": "QVQLVESGGGLVQAGGSLRLRCAASGRIFTYYAMGWYRPAPGKERELVAAISWSGGSTYYADSVKGRFTISRDNAKNTVYLQMNSLKPEDTAVYYCNAVYPSVYPVSTRYYWGQGTQVTVSS", "polyreactivity (PSR sort gate)": "high polyreactivity"}, {"sequence": "QVQLVESGGGLVQAGGCLRVSCAASGFISGYYAMGGYSQAPGIERELVAAIDWIGGSTYYAESVKGRFTISRDNAKNTEYFQMNSLKPEDTAVYDCAASYKYGSSWGDGYWGQGTQVTVSS", "polyreactivity (PSR sort gate)": "low polyreactivity"}, {"sequence": "QDQLVESGGGLVQAGGRLRLSCAASGFIFYSYVMGRYRQAPGKERELVASIRSRGGSTYYADSVKGRFTISRDNAKNTVYLQMNSLKPEDTAVYYCAADLYLSPSWYKYDYWGQGTQVTVSS", "polyreactivity (PSR sort gate)": "low polyreactivity"}, {"sequence": "QVQLQESGGGLVQAGGSLRLSCAASGYIPLAQTIGSYRQAPGKEREFVASIALGSSTYYTDSVKGSFTISRDNAKTTVYLQMNSLKPEDTAVYYCAARVGACYAHDYWGQGTQVTVSS", "polyreactivity (PSR sort gate)": "low polyreactivity"}, {"sequence": "QVQHVESGGGLVQAGASLRLSCAASGLTFRSNAMGWYSQAPGKERELVAAISSSGGSTYYADSVKGRFTISRDNAQNTVYLQMNSLKPEDTAVYYCAAEDPGDQYDYWGQGTQVTVSS", "polyreactivity (PSR sort gate)": "high polyreactivity"}, {"sequence": "QVQLVESAGGLVQAGGSLRLSCAASGRIFWLYAMGWYRQAPGKERELVASISQSGANTYYADSVKGRFTISRDNSKNNVYLQMNCLKPEYTSVDYCSSNRYDSYYFWVGYWGQGSQVTVSS", "polyreactivity (PSR sort gate)": "low polyreactivity"}, {"sequence": "QVQLQERGGGLVQAGGTLRLSCAASGSFSADEDMGWYRQAQGKEREFVAGISVGGNTNYADSVKGRFTISRENAKNTVYLQINSLKPEDTAVYYCAVLQDVYDALDYWAQGTQVTVSS", "polyreactivity (PSR sort gate)": "high polyreactivity"}, {"sequence": "QVQLVESGGGLVQAGGSLRLSCAASGSIFVYNAMGWYRQAPRKETEMVAAITSTGRTYYADSVKGRFTISRDNAKNTVYLKMNSLKPEDTGVYYCAATYVWSTLQYKTWQKLTHYGYWGQGTQVTVSS", "polyreactivity (PSR sort gate)": "high polyreactivity"}, {"sequence": "QVQLLESGGGKVQAVGSLRLSCAASGSIDDWYAMGWYRQAPGKERELLAAINEGGGSTYYADSVKGRFTISRDNAKNTVYFQMNILKPEDTAFYYCNAELSFRYPVFRELDYWGQGSQVTVSS", "polyreactivity (PSR sort gate)": "low polyreactivity"}, {"sequence": "QVQLVESGGGLVQAGGSLRLSCAASGSIFVYNAMGWYRQAPGKERELVASITWSGGRTYYADSVKGRFTISRDNAKNTVYLQMNSLKPEDTAVYYCAADSPRGYDYWGQGTQVTVSS", "polyreactivity (PSR sort gate)": "high polyreactivity"}, {"sequence": "QVQLVESGGGLVQAGGSLRLSCAASGRIFYSNDMGWYRQAPGKERELVAGINYDGGSTYYADSVKGRFTISRDNPKNTVYLQINSLKPEDTAVNYCNVRQVGWFNTPGDYWGQGTQVTVSS", "polyreactivity (PSR sort gate)": "low polyreactivity"}, {"sequence": "QVQLVESGGGLVQAGGSLRLSCAASGSTFSNVMGWYRQAPGKEREFVARISKSGGSTYYADSVKGRFTISRDNAKNSVYLQMNSLKPEDTAVYYCATGRFRRTEYGGRYDYWGQGTKVTVSS", "polyreactivity (PSR sort gate)": "high polyreactivity"}, {"sequence": "QVQLVESGGGLVQAGGSLRISCAASGLTSPIYAMGWYRQAPGKERELDAAISKNGGSTYYADSVKGRFTISRDNAKNTVYVQMNSLKPEDTAVYYCNAVVYHYTLDHEYDYWGQGTQVTVSS", "polyreactivity (PSR sort gate)": "high polyreactivity"}, {"sequence": "QVQLVESGGGLVQAGGRLRLSCAASGGIFESYAMGWYRQAPGKERELVATITGSGGNTYYADSVKGRFTISRDNAKNTVYLQMNSLKPEDTAVYYCAADTYITPHYLPLLYFLMEYWGQGTQVTVSS", "polyreactivity (PSR sort gate)": "low polyreactivity"}, {"sequence": "QVQLVESGGGLVQAGGSLRLSCAASGFIFTWYTMGWYRQAPGKERELVAAITSGGNTNYADSVKGRFTISRDNAKNTVYLQMNSLKPEDTAVYYCARGYLASRLKFAKYDYWGQGTQVTVSS", "polyreactivity (PSR sort gate)": "high polyreactivity"}, {"sequence": "QVQLQESGDGLVQAGGSLRLSCAASGTIFTPHQMGWYRQAPGNEREFVATIDYGSSTNYADSLKGLFTISRDNAKNTMYPQMNSLKPEDTAVYYCANYYWGQGTQVTVSS", "polyreactivity (PSR sort gate)": "low polyreactivity"}, {"sequence": "QVQLVESGGGLVQAGGSLRLSCAASGLTFNVYAMGWYRPAPGKERELVASITKRGGSTYYADSVKGRFTISRDNAKNTVYLQMNSLKPEDTAVYYCAADGLTGSKYRATGYYWGQGTQVTVSS", "polyreactivity (PSR sort gate)": "high polyreactivity"}, {"sequence": "QVQLVESGGGLVQAGGSLRLSCAASGSIFSSNAMGWYIQAPGKERELVASIDGGPTTYADSVKGRFTISRDNAKNTVYLQMNSLKPEDTAVYYCNADSLDGPKFDYWGQGTQVTVSS", "polyreactivity (PSR sort gate)": "low polyreactivity"}, {"sequence": "QVQLVESGGCLVQAGGSLRLSCAASGSTFIINAMGWYIQAPGKERVLVAANTSTGGTNYADSVKGRFTISRDNAKNTVYLQMNSLKPEATAVYYCAARYYQDGYDYWGQGTQGTVSS", "polyreactivity (PSR sort gate)": "high polyreactivity"}, {"sequence": "QVQLVESGGGLVQAGGSLRLSCAASGSIFYYKYSMGWYRQAPGKERELVAAITSTGGTTYYADSVKGRFTISRDNAKNTVYLQMNSLKPEDTAVYYCAALAPYIGGVDYDYWGQGTQVTVSS", "polyreactivity (PSR sort gate)": "low polyreactivity"}, {"sequence": "QVQLVESGGGLVQAGGSLRLSCAASGFIFDSYAMGWYRQAPGKERELVAAITTSGGRSYYADSVKGRFTISRDNAKNTVYLQMNSLKPEDTAVYYCAAKYTARWGFDYWGQGTQVTVSS", "polyreactivity (PSR sort gate)": "high polyreactivity"}, {"sequence": "QVQLVESGGGVVQAGGSLRLSCAASGFIYRWNAMGLNRQAPGKERELVAAMSARGGSTYDADSVKGRFTIARDNAKNTVYLPMNSLKPEDTAVYYCARAKRVHTEYDYWGQGTQVTVSS", "polyreactivity (PSR sort gate)": "high polyreactivity"}, {"sequence": "QVQLVETGGGLVQAGGSLRLSCAASGRTLTCYAMGWYRQAPGKERELVAAISWSGGSTYYADSVKGRFTISRDNAKNTVYLQMYSLIPEDTAVYYCAADRVRSYFSRYYSTPLDYYWGQGTQVTVSS", "polyreactivity (PSR sort gate)": "high polyreactivity"}, {"sequence": "QLQLVESGAGLVQAGGSLRLSCAASGNIFRKNAMGRSRQAPGKERELVAAISRRGGNSYYADSVKGRFTISRDNAKNTVYLQMNSLKPEDTAVYYCAADWSPTAASDYWGQGTQVTVSS", "polyreactivity (PSR sort gate)": "high polyreactivity"}, {"sequence": "QVQLVESGGGLVQAGGSLRLSCAASGSTHGYAMGWYRQAPGKERELVAAISLNTGSTYYADSVKGRFTIARDNAKNTVYFQMNSLKPEYTAVYYCNADDYTYATYEYDYWGQGTLVTVSS", "polyreactivity (PSR sort gate)": "low polyreactivity"}, {"sequence": "QVQLVESGGGLVQAGGSLRLSCAASGFISSINAMGWYRQAPGKERELVAGIRARGTSTYYADSVKGRFTISRDNAKNTVYLQMNSLKPEDTAVYYCAADFTYQGSSANDYWGQGTQVTVSS", "polyreactivity (PSR sort gate)": "low polyreactivity"}, {"sequence": "QVQLVESGGGLVQAGGSLRLSCAASGRIFTYNAMGWYRQAPGKERELVAVISRRGGSTYYADSVKGRFTISRDYAKNTVYFQMNSLKAEDTAVYYCAGDLPSYPYEYWGQGTQVTVSS", "polyreactivity (PSR sort gate)": "low polyreactivity"}, {"sequence": "QVQLVESGGGLVQAGGSLRLSCAASGSTFGRYTMGWYRQAPGKEREFVAAIRWSGGNTYYADSVKGRFTISRDNAKNTVYLQMNSLKPEDTAVYYCNRVYSTIGDYWGQGTQVTVSS", "polyreactivity (PSR sort gate)": "low polyreactivity"}, {"sequence": "QVQLVESGGGLVQAGGSLRLSCAASGSIFSRYAMGWYRQAPGKERELVAAISWRGVSTYYADSVKGRFTISRDNAKNTVYLQMNSLKPEDTAVYYCAADTGRYLDSNYWGQGTQVTVSS", "polyreactivity (PSR sort gate)": "high polyreactivity"}]}]}
